Measurements from patent US20240398902A1.

Experiments:
[1] = target: Type I IFN receptor (IFNAR1 and IFNAR2) on HEK-Blue 293 reporter cells (UniProt P17181); assay: cell-based or functional assay
[2] = target: Type II IFN receptor (IFNGR1 and IFNGR2) on HEK-Blue 293 reporter cells (UniProt P15260); assay: cell-based or functional assay
Sequence of Type II IFN receptor (IFNGR1 and IFNGR2) on HEK-Blue 293 reporter cells (P15260 18-489 limits assumed, chain 1 of 2): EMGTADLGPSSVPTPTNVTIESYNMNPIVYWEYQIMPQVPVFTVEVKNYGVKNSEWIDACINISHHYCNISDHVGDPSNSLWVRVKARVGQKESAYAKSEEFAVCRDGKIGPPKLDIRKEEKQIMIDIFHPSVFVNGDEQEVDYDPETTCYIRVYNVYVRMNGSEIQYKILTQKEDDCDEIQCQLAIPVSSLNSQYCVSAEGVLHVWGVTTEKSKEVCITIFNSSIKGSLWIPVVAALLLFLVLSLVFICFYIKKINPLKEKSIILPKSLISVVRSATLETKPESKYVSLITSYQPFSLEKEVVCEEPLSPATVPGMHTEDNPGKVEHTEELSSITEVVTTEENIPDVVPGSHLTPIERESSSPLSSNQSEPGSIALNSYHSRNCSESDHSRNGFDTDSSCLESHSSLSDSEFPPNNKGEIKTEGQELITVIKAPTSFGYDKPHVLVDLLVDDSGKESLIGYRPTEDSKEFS
Sequence of Type II IFN receptor (IFNGR1 and IFNGR2) on HEK-Blue 293 reporter cells (P38484 22-337 limits assumed, chain 2 of 2, further chain): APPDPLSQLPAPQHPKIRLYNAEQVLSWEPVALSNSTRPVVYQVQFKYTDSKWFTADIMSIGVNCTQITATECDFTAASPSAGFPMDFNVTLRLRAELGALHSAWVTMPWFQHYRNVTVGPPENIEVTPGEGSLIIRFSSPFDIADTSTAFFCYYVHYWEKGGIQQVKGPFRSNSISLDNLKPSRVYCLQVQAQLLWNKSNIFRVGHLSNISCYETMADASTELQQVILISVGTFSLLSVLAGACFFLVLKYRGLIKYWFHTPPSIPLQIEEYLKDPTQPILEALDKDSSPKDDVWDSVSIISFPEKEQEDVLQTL

Sequence of Type I IFN receptor (IFNAR1 and IFNAR2) on HEK-Blue 293 reporter cells (P17181 28-557 limits assumed, chain 1 of 2): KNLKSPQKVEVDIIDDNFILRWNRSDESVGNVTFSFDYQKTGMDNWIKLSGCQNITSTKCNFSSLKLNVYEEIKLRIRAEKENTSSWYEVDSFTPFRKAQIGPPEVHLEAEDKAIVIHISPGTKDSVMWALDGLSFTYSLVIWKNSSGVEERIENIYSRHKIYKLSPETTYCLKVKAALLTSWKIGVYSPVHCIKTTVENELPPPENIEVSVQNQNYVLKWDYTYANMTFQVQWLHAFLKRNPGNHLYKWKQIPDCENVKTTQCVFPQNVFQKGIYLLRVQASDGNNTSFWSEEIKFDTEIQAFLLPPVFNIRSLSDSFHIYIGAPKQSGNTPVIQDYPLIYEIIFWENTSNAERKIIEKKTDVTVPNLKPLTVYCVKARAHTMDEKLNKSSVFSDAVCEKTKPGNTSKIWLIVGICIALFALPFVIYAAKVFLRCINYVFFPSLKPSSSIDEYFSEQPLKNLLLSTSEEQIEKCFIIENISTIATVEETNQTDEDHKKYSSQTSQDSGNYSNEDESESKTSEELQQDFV
Sequence of Type I IFN receptor (IFNAR1 and IFNAR2) on HEK-Blue 293 reporter cells (P48551 27-515 limits assumed, chain 2 of 2, further chain): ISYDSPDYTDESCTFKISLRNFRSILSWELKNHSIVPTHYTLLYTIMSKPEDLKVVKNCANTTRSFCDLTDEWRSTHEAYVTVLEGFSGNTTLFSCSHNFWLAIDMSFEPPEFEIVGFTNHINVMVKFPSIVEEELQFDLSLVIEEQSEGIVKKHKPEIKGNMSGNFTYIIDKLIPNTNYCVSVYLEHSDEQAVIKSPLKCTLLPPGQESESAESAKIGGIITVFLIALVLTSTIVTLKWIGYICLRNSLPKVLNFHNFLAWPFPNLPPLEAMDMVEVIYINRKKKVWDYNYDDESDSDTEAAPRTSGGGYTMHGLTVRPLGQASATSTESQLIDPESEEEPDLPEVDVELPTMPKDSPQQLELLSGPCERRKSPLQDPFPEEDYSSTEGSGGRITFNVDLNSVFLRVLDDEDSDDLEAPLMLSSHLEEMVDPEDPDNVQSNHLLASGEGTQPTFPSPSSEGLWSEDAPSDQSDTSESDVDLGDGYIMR

soluble IFNβ (from UniProt P01574 22-187) (ligand)
EC50 of SEAP reporter response, HEK-Blue IFN reporter cells [1]: 0.9 pM
MHC I (HLA I) expression, MFI by FACS against untreated 293T cells (fold increase) [1]: 9

soluble IFNγ (from UniProt P01579 24-166) (ligand)
EC50 of SEAP reporter response, HEK-Blue IFN reporter cells [2]: 7.1 pM
